Assay results taken from US20200299373A1.

How the values were obtained:
[1] = target: recombinant human FAM19A5 protein (His-tagged) (human) (UniProt Q7Z5A7); experiment: two-site sandwich ELISA; capture antibody 13B4; biotinylated detection antibody P2-F11; antigen in ng/mL
[2] = target: recombinant human FAM19A5 protein (His-tagged) (human) (UniProt Q7Z5A7); experiment: two-site sandwich ELISA; capture antibody 1-65; biotinylated detection antibody P2-F11; antigen in ng/mL
[3] = target: recombinant human FAM19A5 protein (His-tagged) (human) (UniProt Q7Z5A7); experiment: two-site sandwich ELISA; capture antibody 1-65; S/N = O.D. at 10 ng/mL antigen / O.D. at 0 ng/mL; O.D. in column 0 printed 0.12
[4] = target: recombinant human FAM19A5 protein (His-tagged) (human) (UniProt Q7Z5A7); experiment: ELISA on N'-Term His FAM19A5, fit of the titration (OD 492 nm); R2 printed 0.9692
[5] = target: recombinant human FAM19A5 protein (His-tagged) (human) (UniProt Q7Z5A7); experiment: two-site sandwich ELISA; capture antibody 2-13; biotinylated detection antibody P2-F11; antigen in ng/mL
[6] = target: recombinant human FAM19A5 protein (His-tagged) (human) (UniProt Q7Z5A7); experiment: two-site sandwich ELISA; capture antibody 3-2; biotinylated detection antibody P2-F11; antigen in ng/mL
[7] = target: recombinant human FAM19A5 protein (His-tagged) (human) (UniProt Q7Z5A7); experiment: two-site sandwich ELISA; capture antibody 13B4; S/N = O.D. at 10 ng/mL antigen / O.D. at 0 ng/mL; O.D. in column 0 printed 0.18
[8] = target: recombinant human FAM19A5 protein (His-tagged) (human) (UniProt Q7Z5A7); experiment: two-site sandwich ELISA; capture antibody P2-A03; S/N = O.D. at 10 ng/mL antigen / O.D. at 0 ng/mL; O.D. in column 0 printed 0.09
[9] = target: recombinant human FAM19A5 protein (His-tagged) (human) (UniProt Q7Z5A7); experiment: ELISA on N'-Term His FAM19A5, fit of the titration; R2 printed 0.9692
[10] = target: recombinant human FAM19A5 protein (His-tagged) (human) (UniProt Q7Z5A7); experiment: two-site sandwich ELISA; capture antibody P2-A03; biotinylated detection antibody P2-F11; antigen in ng/mL
[11] = target: recombinant human FAM19A5 protein (His-tagged) (human) (UniProt Q7Z5A7); experiment: two-site sandwich ELISA; capture antibody 2-13; S/N = O.D. at 10 ng/mL antigen / O.D. at 0 ng/mL; O.D. in column 0 printed 0.29
[12] = target: recombinant human FAM19A5 protein (His-tagged) (human) (UniProt Q7Z5A7); experiment: two-site sandwich ELISA; capture antibody 3-2; S/N = O.D. at 10 ng/mL antigen / O.D. at 0 ng/mL; O.D. in column 0 printed 0.13
F2-03-BSA (human) = target: T1, F2-03-BSA (human); experiment: ELISA on mutant F2 peptide-BSA #3; details: remark: other sources report otherwise
T1 chain: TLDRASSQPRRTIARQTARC

[13] = target: recombinant human FAM19A5 protein (His-tagged) (human) (UniProt Q7Z5A7); experiment: ELISA on coated FAM19A5, as in Example 6
[14] = target: recombinant human FAM19A5 protein (His-tagged) (human) (UniProt Q7Z5A7); experiment: ELISA on N'-Term His FAM19A5, fit of the titration (OD 492 nm); R2 printed 0.8703

Binder	O.D., antigen 100 [1]	O.D., antigen column 10 [1]	O.D., antigen 100 [2]	O.D., antigen column 10 [2]	S/N [3]	Bmax [4]	O.D., antigen 100 [5]	O.D., antigen column 10 [5]	O.D., antigen 100 [6]	O.D., antigen column 10 [6]	S/N [7]	S/N [8]	Kd [9]	O.D., antigen 100 [10]	O.D., antigen column 10 [10]	S/N [11]	S/N [12]	O.D (492nm) (F2-03-BSA (human))	Kd [13]	Bmax [14]
anti-FAM19A5 antibody P2-F11 (antibody, V domains shown, Biotinylated when used as detection antibody in FIG. 6B.) VH: QEQLVESGGRLVTPGTTLTLTCTVSGFSLSSYGVSWVRQAPGKGLEWIGYIANNYNPHYASWAKGRFTISKTSSTTVDLKMTSLTTEDTATYFCARDNYGMDPWGPGTLVTVSS VL: ELDLTQTPSSVSAAVGGTVTINCQASQSVYNNKNLAWYQQKPGQPPKLLIYAASTLASGVSSRFKGSGSGTQFTLTISDVQCDDAATYYCQGEFSCSSADCNAFGGGTELEILR	0.2	0.18	1.25	0.2	1.7	3.26	1.83	2.04	2.02	1.81	1	1	0.41 nM	0.09	0.09	7	13.9			
anti-FAM19A5 antibody 1-28 (antibody, V domains shown) VH: AVTLDESGGGLQTPGGALSLVCKASGFDFSDYGMGWVRQAPGKGLEWVAAIRSDGSNPSYGSAVKGRATISKDNGRSTVRLQLNNLRAEDTATYYCAKDGNGYCALDAYRSGGYSCGVYPGSIDAWGHGTEVIVSS VL: ALTQPSSVSANLEGTVEITCSGSGYGYGWYQQKSPGSAPVTVIYQNDKRPSDIPSRFSGSKSGSTGTLTITGVQVEDEAVYYCGSEDSSTLAGIFGAGTTLTVL																		0.055	0.17 nM	2.94
